# Source: paper doi:10.1101/525485 (bioRxiv, 2019)
# Positions count from the first letter of the chain named. Numbers in names are those of the source.
# B1: Cdm1, fourth subunit of S. pombe DNA polymerase delta, purified (natural protein)
# chain: MKKRTTQAKKSGQNTNIRDVFPHVVRSNSSQSHIGKKVSSEQSPTPDVTITTKTLDERIKEDDELSKEVEEAWNQIMAERISEPIHCENITKVEFILHHFDTTARYGPYLGMTRMQRWKRAKNFNLNPPETVGKILMLEEADEENRKRESLFYDLQTIPG
# B2: p12 subunit of human DNA polymerase delta, purified, GST tag cleaved off (natural protein)
# chain: MGRKRLITDSYPVVKRREGPAGHSKGELAPELGEEPQPRDEEEAELELLRQFDLAWQYGPCTGITRLQRWCRAKQMGLEPPPEVWQVLKTHPGDPRFQCSLWHLYPL
# B3: p12 L104A, Y105A mutant, purified (natural protein)
# chain: B2 chain with L104A, Y105A
# Experiments:
# [1] = biological target: the molecule itself; assay: native gel or EMSA
# [2] = biological target: the molecule itself; assay: cross-linking
# [3] = biological target: human PCNA, purified (human, UniProt P12004 1-261); assay: ITC
# [4] = biological target: the molecule itself; assay: ITC
# Chain of human PCNA, purified (P12004 whole entry): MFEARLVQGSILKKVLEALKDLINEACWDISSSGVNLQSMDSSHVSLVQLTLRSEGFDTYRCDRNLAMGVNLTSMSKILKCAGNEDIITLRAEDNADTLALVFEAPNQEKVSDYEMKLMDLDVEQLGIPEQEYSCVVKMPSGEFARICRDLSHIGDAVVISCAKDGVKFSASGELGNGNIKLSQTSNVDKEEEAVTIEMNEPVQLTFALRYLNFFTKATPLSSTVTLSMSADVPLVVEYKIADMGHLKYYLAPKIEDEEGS
Binder,binding result [1],stoichiometry N [2],Kd [3] [µM],Kd [4] [nM],dH [4] [kcal/mol],stoichiometry N [4]
B1,binds,–,–,–,–,–
B2,–,2,10,~146,~-1.82,~0.6
B3,–,2,–,–,–,–
